Key:
TFIIB = TFIIB (UniProt Q00403); test: FLAG co-immunoprecipitation, TFIIB immunoblot; conditions: reference: FLAG-WT-HSF1
[1] = target: T1, FLAG-tagged WT-HSF1 (human), Q00613; test: cross-linking; HEK-293 cells transfected for 48 h with WT- or T142A-HSF1 with or without AKT1 or CK2; cells fixed with 1 mM EGS for 30 min at RT, quenched with 10 mM Tris pH 7.5, RIPA lysate, SDS/PAGE, immunoblot for HSF1 trimers; conditions: remark: other sources report otherwise
T1 chain: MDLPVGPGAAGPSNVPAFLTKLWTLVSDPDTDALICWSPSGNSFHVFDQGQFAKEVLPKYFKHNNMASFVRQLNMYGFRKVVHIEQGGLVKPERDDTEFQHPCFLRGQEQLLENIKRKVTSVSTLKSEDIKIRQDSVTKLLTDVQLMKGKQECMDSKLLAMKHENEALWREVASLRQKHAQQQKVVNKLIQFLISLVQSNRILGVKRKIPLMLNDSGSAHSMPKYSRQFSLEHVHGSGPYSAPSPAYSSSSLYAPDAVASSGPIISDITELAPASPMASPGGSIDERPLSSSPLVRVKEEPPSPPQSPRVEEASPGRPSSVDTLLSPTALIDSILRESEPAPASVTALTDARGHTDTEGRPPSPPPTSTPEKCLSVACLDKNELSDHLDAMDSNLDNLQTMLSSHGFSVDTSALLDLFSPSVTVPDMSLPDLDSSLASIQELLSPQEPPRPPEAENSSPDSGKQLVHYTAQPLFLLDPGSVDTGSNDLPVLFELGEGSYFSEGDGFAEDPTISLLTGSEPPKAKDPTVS

[2] = target: T1, FLAG-tagged WT-HSF1 (human), Q00613; test: cross-linking + SEC; HEK-293 cells co-expressing AKT1 and WT- or T142A-HSF1, fixed with EGS; RIPA lysate on Superdex 200 Increase 10/300 GL in 50 mM Tris pH 8.0, 150 mM NaCl, 1% NP-40, 4 °C; fractions immunoblotted for HSF1; conditions: remark: other sources report otherwise

HSF1 (from UniProt Q00613) FLAG-S326A-HSF1
binding against the reference (TFIIB; sites S326): weaker

HSF1 (from UniProt Q00613) FLAG-T527A-HSF1
binding against the reference (TFIIB; sites T527): lost

B1: FLAG-tagged WT-HSF1, Q00613 1-529 (natural protein)
chain: MDLPVGPGAAGPSNVPAFLTKLWTLVSDPDTDALICWSPSGNSFHVFDQGQFAKEVLPKYFKHNNMASFVRQLNMYGFRKVVHIEQGGLVKPERDDTEFQHPCFLRGQEQLLENIKRKVTSVSTLKSEDIKIRQDSVTKLLTDVQLMKGKQECMDSKLLAMKHENEALWREVASLRQKHAQQQKVVNKLIQFLISLVQSNRILGVKRKIPLMLNDSGSAHSMPKYSRQFSLEHVHGSGPYSAPSPAYSSSSLYAPDAVASSGPIISDITELAPASPMASPGGSIDERPLSSSPLVRVKEEPPSPPQSPRVEEASPGRPSSVDTLLSPTALIDSILRESEPAPASVTALTDARGHTDTEGRPPSPPPTSTPEKCLSVACLDKNELSDHLDAMDSNLDNLQTMLSSHGFSVDTSALLDLFSPSVTVPDMSLPDLDSSLASIQELLSPQEPPRPPEAENSSPDSGKQLVHYTAQPLFLLDPGSVDTGSNDLPVLFELGEGSYFSEGDGFAEDPTISLLTGSEPPKAKDPTVS
stoichiometry N [1]: 3
stoichiometry N [2]: 3

Reference: publication PMC9309721
